Source: IntAct's records for PubMed 29954986

B1: Protein patched homolog 1 (Homo sapiens), Q13635-1 (parent)
chain: MASAGNAAEPQDRGGGGSGCIGAPGRPAGGGRRRRTGGLRRAAAPDRDYLHRPSYCDAAFALEQISKGKATGRKAPLWLRAKFQRLLFKLGCYIQKNCGKFLVVGLLIFGAFAVGLKAANLETNVEELWVEVGGRVSRELNYTRQKIGEEAMFNPQLMIQTPKEEGANVLTTEALLQHLDSALQASRVHVYMYNRQWKLEHLCYKSGELITETGYMDQIIEYLYPCLIITPLDCFWEGAKLQSGTAYLLGKPPLRWTNFDPLEFLEELKKINYQVDSWEEMLNKAEVGHGYMDRPCLNPADPDCPATAPNKNSTKPLDMALVLNGGCHGLSRKYMHWQEELIVGGTVKNSTGKLVSAHALQTMFQLMTPKQMYEHFKGYEYVSHINWNEDKAAAILEAWQRTYVEVVHQSVAQNSTQKVLSFTTTTLDDILKSFSDVSVIRVASGYLLMLAYACLTMLRWDCSKSQGAVGLAGVLLVALSVAAGLGLCSLIGISFNAATTQVLPFLALGVGVDDVFLLAHAFSETGQNKRIPFEDRTGECLKRTGASVALTSISNVTAFFMAALIPIPALRAFSLQAAVVVVFNFAMVLLIFPAILSMDLYRREDRRLDIFCCFTSPCVSRVIQVEPQAYTDTHDNTRYSPPPPYSSHSFAHETQITMQSTVQLRTEYDPHTHVYYTTAEPRSEISVQPVTVTQDTLSCQSPESTSSTRDLLSQFSDSSLHCLEPPCTKWTLSSFAEKHYAPFLLKPKAKVVVIFLFLGLLGVSLYGTTRVRDGLDLTDIVPRETREYDFIAAQFKYFSFYNMYIVTQKADYPNIQHLLYDLHRSFSNVKYVMLEENKQLPKMWLHYFRDWLQGLQDAFDSDWETGKIMPNNYKNGSDDGVLAYKLLVQTGSRDKPIDISQLTKQRLVDADGIINPSAFYIYLTAWVSNDPVAYAASQANIRPHRPEWVHDKADYMPETRLRIPAAEPIEYAQFPFYLNGLRDTSDFVEAIEKVRTICSNYTSLGLSSYPNGYPFLFWEQYIGLRHWLLLFISVVLACTFLVCAVFLLNPWTAGIIVMVLALMTVELFGMMGLIGIKLSAVPVVILIASVGIGVEFTVHVALAFLTAIGDKNRRAVLALEHMFAPVLDGAVSTLLGVLMLAGSEFDFIVRYFFAVLAILTILGVLNGLVLLPVLLSFFGPYPEVSPANGLNRLPTPSPEPPPSVVRFAMPPGHTHSGSDSSDSEYSSQTTVSGLSEELRHYEAQQGAGGPAHQVIVEATENPVFAHSTVVHPESRHHPPSNPRQQPHLDSGSLPPGRQGQQPRRDPPREGLWPPPYRPRRDAFEISTEGHSGPSNRARWGPRGARSHNPRNPASTAMGSSVPGYCQPITTVTASASVTVAVHPPPVPGPGRNPRGGLCPGYPETDHGLFEDPHVPFHVRCERRDSKVEVIELQDVECEERPRGSSSN

Variants of: B1
Details: with shh_human SHH

| Variant | effect of a mutation on the interaction |
| --- | --- |
| G509V | disrupting interaction |
| T500F;P504L | disrupting interaction |
| D513Y | disrupting interaction |
| L282Q | disrupting interaction |
| L282Q;T500F;P504L | disrupting interaction |
